In patent US20170260266A1:
“And” between values parts separate entries of the source, which are not always exact repeats. Identical values can stand only once.

How the values were obtained:
[1] = target: full length (mature) cynomolgus monkey TSLP, recombinant (cynomolgus monkey); assay: cell-based or functional assay
[2] = target: full length (mature) cynomolgus monkey TSLP, recombinant (cynomolgus monkey); assay: RBA, geometric mean (n = 2)
[3] = target: full length (mature) cynomolgus monkey TSLP, recombinant (cynomolgus monkey); assay: SPR with biotinylated TSLP; mean of two experiments
[4] = target: pre-existing human anti-VK (HAVK) antibodies; assay: MSD bridging immunoassay: biotinylated and ruthenylated dAb cross-linked by antibodies in 5% serum of healthy subjects; rate over donors
[5] = target: full length (mature) cynomolgus monkey TSLP, recombinant (cynomolgus monkey); assay: ELISA RBA, geometric mean
[6] = target: full length (mature) cynomolgus monkey TSLP, recombinant (cynomolgus monkey); assay: SPR, biotinylated TSLP on SA chip; all concentrations (footnote 2)
[7] = target: full length (mature) cynomolgus monkey TSLP, recombinant (cynomolgus monkey); assay: SPR, biotinylated TSLP on SA chip; value excluding 1000 nM concentration
[8] = target: full length (mature) cynomolgus monkey TSLP, recombinant (cynomolgus monkey); assay: SPR, biotinylated TSLP on SA chip (Biacore 4000)

| pSTAT5 assay in SW756 cells, Geometric Mean IC50 [1] | IC50 [5] | Kd [8] | Binder | further results |
| --- | --- | --- | --- | --- |
| – | – | – | DOM30h-440-81/86 (protein) VL: DIQMTQSPSSLSASVGDRVTITCRASRPIRNWLDWYQQKPGKAPKLLIWGASHLQSGVPSRFSGSGSGTDFTLTISSLQPEDFATYYCVQIGEDPVTFGQGTKVEIK | Inhibition of TSLP-induced pSTAT5 in SW756 cells, Geometric Mean IC50 (n = 5) [1]: 4 nM; IC50 [2]: 2.05 nM; Kd [3]: 0.511 nM and 0.51 nM; koff [3]: 0.000774 s⁻¹; kon [3]: 1.62e+06 M⁻¹ s⁻¹; frequency of sera giving a positive signal (above the assay cutpoint) [4]: 6.7% |
| 1.6 nM | 0.36 nM | – | DOM30h-440-57 (protein) VL: DIQMTQSPSSLSASVGDRVTITCRASRPIRNWLDWYQQKPGKAPELLIWGASHLQSGVPSRFSGSGSGTDFTLTISSLQPEDFATYYCMQIGDDPVTFGQGTKVEIKR | Kd [6]: 4.95 nM; Kd [7]: 1.92 nM |
| 11.2 nM | 2.65 nM | 7.81 nM | DOM30h-440-60 (protein) VL: DIQMTQSPSSLSASVGDRVTITCRASRPIRNWLDWYQQKPGKAPKLLIWGASHLQSGVPSRFSGSGSGTDFTLTISSLQPEDFATYYCIQFGEDPVTFGQGTKVEIKR | – |
| 2.4 nM | 0.83 nM | 5.98 nM | DOM30h-440-63 (protein) VL: DIQMTQSPSSLSASVGDRVTITCRASRPIRNWLDWYQQKPGKAPKLLIWGASHLQSGVPSRFSGSGSGTDFTLTISSLQPEDFATYYCMQIGSDPVTFGQGTKVEIKR | – |
| 3.43 nM | 0.21 nM | 3.42 nM | DOM30h-440-58 (protein) VL: DIQMTQSPSSLSASVGDRVTITCRASRPIRNWLDWYQQKPGKAPKLLIWGASHLQSGVPSRFSGSGSGTDFTLTISSLQPEDFATYYCLQIADDPVTFGQGTKVEIKR | – |
| 2.45 nM | 0.67 nM | 6.24 nM | DOM30h-440-54 (protein) VL: DIQMTQSPSSLSASVGDRVTITCRASRPIRNWLDWYQQKPGKAPKLLIWGASHLQSGVPSRFSGSGSGTDFTLTISSLQPEDFATYYCWQLAFDPTTFGQGTKVEIKR | – |
| 3.36 nM | 0.87 nM | 4.29 nM | DOM30h-440-64 (protein) VL: DIQMTQSPSSLSASVGDRVTITCRASRPIRNWLDWYQQKPGKAPKLLIWGASHLQSGVPSRFSGSGSGTDFTLTISSLQPEDFATYYCLQIGEDPVTFGQGTKVEIKR | – |
| 3.8 nM | 0.29 nM | 3.11 nM | DOM30h-440-65 (protein) VL: DIQMTQSPSSLSASVGDRVTITCRASRPIRNWLDWYQQKPGKAPKLLIWGASHLQSGVPSRFSGSGSGTDFTLTISSLQPEDFATYYCMQIGEDPVTFGQGTKVEIKR | – |
| 7.28 nM | 1.3 nM | 5.79 nM | DOM30h-440-53 (protein) VL: DIQMTQSPSSLSASVGDRVTITCRASRPIRNWLDWYQQKPGKAPKLLIWGASHLQSGVPSRFSGSGSGTDFTLTISSLQPEDFATYYCLQVGEDPVTFGQGTKVEIKR | – |
| 3.12 nM | 0.55 nM | 1.61 nM | DOM30h-440-55 (protein) VL: DIQMTQSPSSLSASVGDRVTITCRASRPIRNWLDWYQQKPGKAPKLLIWGASHLQSGVPSRFSGSGSGTDFTLTISSLQPEDFATYYCVQIGEDPVTFGQGTKVEIKR | – |
| 4.74 nM | 0.55 nM | 2.97 nM | DOM30h-440-56 (protein) VL: DIQMTQSPSSLSASVGDRVTITCRASRPIRNWLDWYQQKPGKAPKLLIWGASHLQSGVPSRFSGSGSGTDFTLTVSSLQPEDFATYYCMQIGEDPVTFGQGTKVEIKR | – |
